*: point of attachment. Biotin = O=C1N[C@H]2[C@H](CS[C@H]2CCCCC(=O)*)N1
Target: T1, GST-PDZ domain #2 of human Zona Occludens-1 (ZO1) (human, UniProt Q07157 186-264)
T1 construct: second PDZ domain (PDZ domain #2) of human Zona Occludens-1 (ZO1), from plasmid pGEX-ZO1-2/3; also called GST-ZO1 PDZ domain #2; GST-ZO1-PDZ-2; source: E. coli BL21(DE3), purified (glutathione-Sepharose 4B); on the array: purified GST fusion protein
T1 sequence (looked up): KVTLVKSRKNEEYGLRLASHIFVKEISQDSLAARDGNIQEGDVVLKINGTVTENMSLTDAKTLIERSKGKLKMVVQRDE
Assay: AlphaScreen or HTRF; GST protein pre-bound to anti-GST-terbium donor antibody, biotinylated peptide pre-bound to streptavidin-d2 acceptor; serial 1:2 dilutions of both in a matrix; 25 mM HEPES pH 7.4, 150 mM NaCl, 5 mM MgCl2, 0.005% Tween-20; 1 hr incubation; one-site saturation binding fit; Kd at 3 nM GST-ZO1 PDZ domain #2
Settings: both partners purified

Binder: Biotin-SRVKNLNSSRVPDLLV-OH (also called WT E peptide; Bt-WT peptide) [SARS-CoV-2 E WT peptide (Biotin-SRVKNLNSSRVPDLLV-COOH)]
- Kd: 29 nM
